Test results from paper PMC4506568, “Targeting a Dynamic Protein–Protein Interaction: Fragment Screening against the Malaria Myosin A Motor Complex” (Chemmedchem, 2014).
Where no end group is shown, it is not given here. 8e = not defined here

T1: Plasmodium falciparum myosin A tail domain interacting protein, residues 61–204 (PfMTIPΔ60) (Plasmodium falciparum, UniProt Q8I4W8 61-204)
T1 construct: source: 15N-labeled for NMR; not shown: His tag, N-terminal, kept
T1 sequence: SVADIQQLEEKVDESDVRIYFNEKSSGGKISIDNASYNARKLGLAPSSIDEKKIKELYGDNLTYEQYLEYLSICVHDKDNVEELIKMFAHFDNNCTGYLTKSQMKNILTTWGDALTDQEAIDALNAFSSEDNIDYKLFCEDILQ

B1: PfmyoA(799–818) (peptide)
peptide: KNIPSLLRVQAHIRKKMVAQ
notes: myosin A (PfmyoA) C-terminal tail, Plasmodium falciparum, residues 799–818; also called myoA tail; myoA tail peptide
B2: peptide–fragment chimera2 (fragment 8 functionality – glycine spacer – myoA tail from Leu 804) (peptide)
peptide: 8e-GLLRVQAHIRKKMVAQ
modifications: reading uncertain
notes: myosin A (PfmyoA) C-terminal tail, Plasmodium falciparum, PfmyoA(799–818) truncated at its N-terminal end to Leu 804; source: synthetic peptide (Fmoc-based solid-phase peptide synthesis)
B3: peptide PfmyoA(803–818) (peptide)
peptide: SLLRVQAHIRKKMVAQ
notes: myosin A (PfmyoA) C-terminal tail, Plasmodium falciparum, residues 803–818; also called PfmyoA tail peptide; positive control PfmyoA tail peptide
B4: peptide–fragment chimera3 (fragment 8 functionality – glycine spacer – myoA tail from Ser 803) (peptide)
peptide: 8e-GSLLRVQAHIRKKMVAQ
modifications: reading uncertain
notes: myosin A (PfmyoA) C-terminal tail, Plasmodium falciparum, PfmyoA(799–818) truncated at its N-terminal end to Ser 803; that chimera3 begins at Ser 803 follows from the order of the list (Leu 805, Leu 804, Ser 803); source: synthetic peptide (Fmoc-based solid-phase peptide synthesis)
B5: peptide–fragment chimera1 (fragment 8 functionality – glycine spacer – myoA tail from Leu 805) (peptide)
peptide: 8e-GLRVQAHIRKKMVAQ
modifications: reading uncertain
notes: myosin A (PfmyoA) C-terminal tail, Plasmodium falciparum, PfmyoA(799–818) truncated at its N-terminal end to Leu 805; called the shortest chimera; source: synthetic peptide (Fmoc-based solid-phase peptide synthesis)

Tests used:
Conditions in all cases: both partners purified
[1] = target: T1, Plasmodium falciparum myosin A tail …; test: protein-detected NMR (1H,15N-HSQC); preformed complex of 100 μM 15N-labeled PfMTIPΔ60 with PfmyoA(799–818), buffer B (20 mM MOPS pH 7.0, 50 mM NaCl, 1 mM TCEP), 10 % D2O, 303 K; fragments 8 or 3 added
[2] = target: T1, Plasmodium falciparum myosin A tail …; test: differential scanning fluorimetry; 5 μM PfMTIPΔ60 with 200 μM peptide in buffer A (20 mM HEPES pH 7.5, 50 mM NaCl, 1 mM TCEP), 10× SYPRO Orange, 15–80 °C
[3] = target: T1, Plasmodium falciparum myosin A tail …; test: ITC; 303 K; cell with about 200 μL of 20 μM PfMTIPΔ60 in buffer A (20 mM HEPES pH 7.5, 50 mM NaCl, 1 mM TCEP); peptide added in 2 μL injections from 250 μM; single site fit; n=1

Binder	Tm of the complex [2]	other results
B1	–	binding result [1]: binds
B2	53.4 °C	–
B3	–	ΔTm [2]: 15.3 °C
B4	55.8 °C	Kd [3]: 52 nM
B5	47.8 °C	–
